Data as given in PMC13123425.

Molecular target: human VWF-A2 fragment (human)

human recombinant wild-type complement factor H, sequence (P08603 19-1231): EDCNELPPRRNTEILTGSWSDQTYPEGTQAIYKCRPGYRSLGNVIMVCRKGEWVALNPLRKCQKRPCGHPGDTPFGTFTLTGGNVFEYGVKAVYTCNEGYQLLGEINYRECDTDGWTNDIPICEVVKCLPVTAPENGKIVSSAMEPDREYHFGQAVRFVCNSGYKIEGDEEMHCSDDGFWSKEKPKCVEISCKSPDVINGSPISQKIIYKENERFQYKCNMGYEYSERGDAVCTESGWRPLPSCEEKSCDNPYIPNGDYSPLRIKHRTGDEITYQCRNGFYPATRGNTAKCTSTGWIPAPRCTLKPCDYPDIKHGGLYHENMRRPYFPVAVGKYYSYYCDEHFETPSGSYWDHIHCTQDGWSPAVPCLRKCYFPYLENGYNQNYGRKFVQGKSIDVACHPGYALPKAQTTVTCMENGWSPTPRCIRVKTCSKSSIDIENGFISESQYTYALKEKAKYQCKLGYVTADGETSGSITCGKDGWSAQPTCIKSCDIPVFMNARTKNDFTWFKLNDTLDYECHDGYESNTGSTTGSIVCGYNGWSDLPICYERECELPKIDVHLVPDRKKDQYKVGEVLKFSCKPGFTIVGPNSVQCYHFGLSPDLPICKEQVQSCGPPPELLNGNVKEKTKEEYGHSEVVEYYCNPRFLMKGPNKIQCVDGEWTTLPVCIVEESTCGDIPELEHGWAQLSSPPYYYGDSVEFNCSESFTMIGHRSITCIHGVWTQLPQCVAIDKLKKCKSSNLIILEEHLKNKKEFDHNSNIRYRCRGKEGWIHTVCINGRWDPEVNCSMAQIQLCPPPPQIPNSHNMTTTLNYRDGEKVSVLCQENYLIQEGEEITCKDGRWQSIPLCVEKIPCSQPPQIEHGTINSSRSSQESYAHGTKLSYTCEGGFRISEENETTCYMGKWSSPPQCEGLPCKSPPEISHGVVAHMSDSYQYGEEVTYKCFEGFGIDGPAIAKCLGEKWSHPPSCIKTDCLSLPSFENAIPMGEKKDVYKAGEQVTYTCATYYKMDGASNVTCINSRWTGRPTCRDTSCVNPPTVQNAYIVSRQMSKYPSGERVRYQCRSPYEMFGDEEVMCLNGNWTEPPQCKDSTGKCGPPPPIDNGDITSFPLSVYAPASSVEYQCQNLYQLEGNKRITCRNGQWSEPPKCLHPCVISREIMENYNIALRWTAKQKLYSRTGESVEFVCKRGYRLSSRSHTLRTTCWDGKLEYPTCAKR

human recombinant W1183R complement factor H (from UniProt P08603 19-1231) (natural protein)
optical tweezer pulling of VWF-A2 (Avi-His/SpyTag, biotinylated construct) with 1.0 μM W1183R-CFH: contour length Lc (no CFH: 55,3 nm): 31.8 nm
optical tweezer pulling of VWF-A2 with 1.0 μM W1183R-CFH: energy barrier position γ, Bell-Evans fit (no CFH: 0.71 nm): 1.38 nm
optical tweezer pulling of VWF-A2 with 1.0 μM W1183R-CFH: persistent length Lp (no CFH: 0.28 nm): 0.38 nm
optical tweezer pulling of VWF-A2 with 1.0 μM W1183R-CFH: unstressed unfolding rate ku0, Bell-Evans fit (no CFH: 0.15 s^-1): 0.034 s⁻¹

human recombinant wild-type complement factor H (from UniProt P08603 19-1231) (natural protein)
optical tweezer pulling of VWF-A2 (Avi-His/SpyTag, biotinylated construct) with 1.0 μM WT-CFH: contour length Lc (no CFH: 55,3 nm): 40 nm
optical tweezer pulling of VWF-A2 with 1.0 μM WT-CFH: energy barrier position γ, Bell-Evans fit (no CFH: 0.71 nm): 1.88 nm
optical tweezer pulling of VWF-A2 with 1.0 μM WT-CFH: persistent length Lp (no CFH: 0.28 nm): 0.38 nm
optical tweezer pulling of VWF-A2 with 1.0 μM WT-CFH: unstressed unfolding rate ku0, Bell-Evans fit (no CFH: 0.15 s^-1): 0.017 s⁻¹
